Our source for the IC50 values is US20260102474A1 (published 2026).

As a reminder, the IC50 is the point on the concentration scale where inhibition reaches its midpoint. A low value points to inhibition by little substance.

Numbering of substitutions follows the chain as printed.

What all share (assay): competition
For assay [1], the target named is SARS-COV-2 full-length trimeric spike protein, Beta (B1.351) (SARS-COV-2).
The target in assay [2] is SARS-COV-2 full-length trimeric spike protein, Alpha (B.1.1.7) (SARS-COV-2).
In assay [3] the target is Trimeric S-protein corresponding to Omicron (B.1.1.529) (SARS-COV-2).
The target in assay [4] is SARS-COV-2 full-length trimeric spike protein, Delta (B.1.617.2) (SARS-COV-2).
Assay [5] has as its target SARS-COV-2 full-length trimeric spike protein, Gamma (P.1) (SARS-COV-2).

B1: ACE2-M2-FcKO (Fc fusion)
chain: STIEEQAKYFLDYFNVQAEDLFYQSSLASWNYNTNITEENVQNMNNAGDKWSAFLKEQSTYAQRYPLQEIQNLTVKLQLQALQQNGSSVLSEDKSKRLNTILNTMSTIYSTGKVCNPDNPQECLLLEPGLNEIMANSLDYNERLWAWESWRSEVGKQLRPLYEEYVVLKNEMARANHYEDYGDYWRGDYEVNGVDGYDYSRGQLIEDVEHTFEEIKPLYEHLHAYVRAKLMNAYPSYISPIGCLPAHLLGDMWGRFWTNLYSLTVPFGQKPNIDVTDAMVDQAWDAQRIFKEAEKFFVSVGLPNMTQGFWEYSMLTDPGNVQKAVCHPTAWDLGKGDFRILMCTKVTMDDFLTAHREMGRIQYDMAYAAQPFLLRNGANEGFHEAVGEIMSLSAATPKHLKSIGLLSPDFQEDNETEINFLLKQALTIVGTLPFTYMLEKWRWMVFKGEIPKDQWMKKWWEMKREIVGVVEPVPHDETYCDPASLFHVSNDYSFIRYYTRTLYQFQFQEALCQAAKHEGPLHKCDISNSTEAGQKLFNMLRLGKSEPWTLALENVVGAKNMNVRPLLNYFEPLFTWLKDQNKNSFVGWSTDWSPYADQSIKVRISLKSALGDKAYEWNDNEMYLFRSSVAYAMRQYFLKVKNQMILFGEEDVRVANLKPRISFNFFVTAPKNVSDIIPRTEVEKAIRMSRSRINDAFRLNDNSLEFLGIQPTLGPPNQPPVSSGGGGSGGGGSGGGGSEPKSSDKTHTCPPCPAPPVAGPSVFLFPPKPKDTLMISRTPEVTCVVVGVSHEDPEVKFNWYVDGVEVHNAKTKPREEQYNSTYRVVSVLTVLHQDWLNGKEYKCKVSNKQLPSPIEKTISKAKGQPGQPREPQVYTLPPSRDELTKNQVSLTCLVKGFYPSDIAVEWESNGQPENNYKTTPPVLDSDGSFFLYSKLTVDKSRWQQGNVFSCSVMHEALHNHYTQKSLSLSPGK
For the molecule B1, the IC50 in assay [1] worked out at 3.9 nM; in assay [2], 4.3 nM; in assay [3], 0.7 nM; in assay [4], 3.3 nM; in assay [5], 3.6 nM.

B2: ACE2-M1-FcKO (Fc fusion)
chain: B1 chain with Y13K, V16H, Q17E, R64M
As to B2, the IC50 amounted to 3.9 nM in assay [1]; 6.9 nM in assay [2]; 0.5 nM in assay [3]; 1.8 nM in assay [4]; 3.8 nM in assay [5].
